# Data from the nanobody polyreactivity screen of Harvey et al. (2022).
# Assay: yeast display, Sf9 membrane polyspecificity reagent, FACS + sequencing; frameworks hold sequencing errors
# How it was run: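 In a synthetic yeast display library (Saccharomyces cerevisiae BJ5465), nanobody expression was induced with galactose for 36–48 hours. FACS gates were set low and high (top ~1%) using anti-HA fluorescence for expression and streptavidin fluorescence for binding of the Sf9 membrane reagent. Each polyreactivity label is drawn from the gate of origin.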
row,Sequence,polyreactivity (PSR sort gate)
1,QVQLVESGGGLVQAGGSLRLSCAASGFTFNYYAMGWYRQAPGKERELVAAISRSGGNTYYADSVKGRFTISRDNAKNTVYLQMNSLKPEDTAVYYCAAYLRSYVRYYYWGQGTQVTVSS,high polyreactivity
2,QVQLVESCGGLVQAGCSLRLSCAASGSIFDGNAMGWYRQAPGKERDLVAVISSRGTRTYYADSVKGRFTISRDNAKITVYLQMNSLKPEDTAVYYFNTRTSDLNGSGDYWGQGTQVTVSS,high polyreactivity
3,QVQLVESGGGLVQAGGSLRLTCADTGNIFVRNAMGWYRQAPGKERELVADISTGADTNYADSVKGRFTISRDNAKNTFYLQKNSLKPEDTAVYYCAAAAEVGEIGYWPMVYWGQVTQVTVSS,high polyreactivity
4,QVQLVESGGGLVQAGGSLSLSCAASGFTLGYYAMGWYRQAPGKERELVAAITSGGGTNYADSVKGRFTISRDNAKNTVYLQMNSLKPEDTAVYYCAARARWIYGMYSWGQGTQVTVSS,low polyreactivity
5,QVQLVESGGGLVQAGGSLRLSCAASGRTFSSYAMGWYRQAPGKERELVAAITRTGGRTYYAYSVKGRFTISRDNAKNSVYLQMNSLKPEDTAVYFCAALYIYRTFAALSRYDYWGQGTQVTVSS,high polyreactivity
6,QVQLVESGGGLVQAGGSLRLRCGASGRTFSSNAMGWYRQAPGKERELVAVITRRGGSTYYADSVKGLFTISRDNAMNNVYLQMNSLKPEDTAVYYCATVAPPQRSGRRSAGEKYYYWGQGTQVTVSS,high polyreactivity
7,QVQLVESGGGLVQAGGSLRLSCAASGITFYGYAMGWYRQAPGKERELVAAISSRGGSTYYADSVKGRFTISRDNAKNTVYLQMNRLKPEDTAVYYCAAVYYTGEYYYWGQGTQVTVSS,high polyreactivity
8,QDQLVESGGGLVQAGGSLRLSCAASGSTLYSNTMGWYRPAPGKERELVAAICWSGASTYYADSVKGRFSISRDNAKNTVYLQMNSLKPEDTAVYYCAAGAYRNWGLYYYWGQGTQVTVSS,high polyreactivity
9,QVQLVESGGGLVKAGGSLRLSCAASGRIFVFNAMGWYRQAPGKERELVAAITSAGSTYYADSVKGRFTISRDNAKNTVYLQMNSLIPEDTAVYYCAAGSRRYRDDYWGQGTQVNVSS,low polyreactivity
10,QVQLVESGGGLVQAGGSLRLSCAASGSILYRYAMGWSRPAPGKERELDAAISYNGGRTYYADSVKGRFSISRDNAKNTVYLQMNSLKPEDTAVYYCNAAGRDDAYDYWGQGTQVTVSS,high polyreactivity
11,QVQLVESGGGLVQAGGSLRLSCAASGFTFRRYAMGWYRQAPGKERELVAGITGRGGSTYYADSVKGRFTISRDNSKNTVYLQMNSLKPEDTAVYYCNKPRAARGYLTGQLDYWGQGTQVTVSS,high polyreactivity
12,QVQLVESGGGLVQAGGSLRLSCAASGYTFFLNAMGWYRPAPGNERELVAVITNVGSTYYADSVKGRFTISRDNAKNTVYLQMHSLKPEDTAVYYCAAEYLAYYSGYDYWGQGTQVTVSS,high polyreactivity
13,QVQLVESGGGLVQAGGSLRLSCAASGSIIYYYAMGWYRQAPGKERELVASITRGGSTYYADSVKGRFTISRDNAKNTVYLQMNSLKPEDTAVYYCNADLGAYVPYDYWGQGTQVTVSS,high polyreactivity
14,QVQLLESGGGLVQAGCSLRLSCAASGFIFSYAMGWYRQAPGKERQLVAAISKSGCRTYYADSVKGRFTISRDNAKNTVYLQMNSMKPEDTEVYYCAVRDLHLSNARYNFWGQGNQVTVSS,high polyreactivity
15,QVQLQESGGGLVQAGGSLRCAASGNISTRSEMGWYRQAPGKEREFVATINSGGITNYADSVKGRFTISRDNAKNTVYLRMNCLKPEDTAVYYRAVYGYFSDPYDYWGQGTQVTVSS,low polyreactivity
16,QVQLVESGGGLFQAGGSLRLSCAASGRTFRDYVMGWYRKATGKERELVAAISTRGASTYYADSVKGRFTISRDNAKNTVDLQMNSLKPEDTAVYYCAARSTRRGNEYDYWGQGTQVTGSS,high polyreactivity
17,QVQLVESGGGLVQAGGSLRLSCAASGRIRFYAMGWYIQAPGKERELVAAISSSGGSTYYADSVKGRFTISRDNAKNTVYLQMNSLKPEDTAVYYCAAAWYYLGTRAQLYDYWGQGTQVTVSS,low polyreactivity
18,QVQLVESGGGLVQAGGSLRLSCAASGFTFYRYAMGSYRQAPGKERELFAAIRKSGGSTYYADSVKGRFTISRDNAKNTVYLLMNSMKAEDTAVYYCAKRYATDGFGYWGQGTQVTVSS,high polyreactivity
19,QVQLVESGGGLVQAGGSLRLSCAASGFTLYYYAMGGYRQAPGKERELVAAISYSGGTTYYADSVKGRFTISRDNAKNTVYLLMYSLKPEDTAVYYCAAGFYSYSWYVKLAYGYWGQGIQVTVSS,low polyreactivity
20,QVQLVESGGGLVQAGGSLRLSCAASGITYGTYAMGWYRQAPGKERELVARITGSGGRTYYADSVKGRFTISRDNAKNTVYLQMISLKPEDTAVYYCAAETWRRYLFGYWGQGTQVTVSS,high polyreactivity
21,QVQLVESGGGLVQAGGSLRLSCAASGRTFIRYAMGWYRQAPGKERELVAAISSRGGRTHYADSVKGRFTISRDNAKNTVYLQMNSLKPEDTAVYYCAADLTYVTVPGASYDYWGQGTQVTVSS,low polyreactivity
22,QVQLEESGGGLVQAGGSLRLSCAASGSTIFGNTMGWYRQAPGKERELVATITRRGGSTYYADSVKGRFTISRDNAKNTVYLQMNSLKPEDTAVYYCAKRGPYTKYDYWGQGTQVTVSS,low polyreactivity

row,Sequence,polyreactivity (PSR sort gate)
1,QVQIVESGGGLVQEGGSLRISCAASGIIFRRYAMGWYRQAPGKERELVATITRSGSTNYAESVKGRFTISRDNAKNSVYLQMNSLKPEDTAVYYCNADDIRGGVGYDYWGQGTQVTVSS,high polyreactivity
2,QVQLVESGGALVQAGGSLRLSCAASGRIFRKNAMGWYRQAPGKERELGAAISGGGGSTYYAVSVKGRFTISRDNAKNTVYLQMNSLQPEDTAVYYCNAPILPGYWGQGTQVTVSS,high polyreactivity
3,QVQLVESGGGLVQAGGSLRLSCAASGITFRYYAMGWYRPAPGKERELVAALTSGGSTNYADSVKGRFTISRDNAKNTVYLQMNSLIPEDTAVYYCAATSYYRTNYGLVFLYRRNYWGQGTQVTVSS,high polyreactivity
4,QVQLVESGGCLVQAGGSLRLSCAASGSTFRHYAMGWYRQQPGKERELVASISKSAGRTYYADSVKGRFTISRDIAKNTVNLQMNSLKPEDTAVYYCAAYRIHVYPAGLAWQYYYELDYWGQGTQLTVSS,high polyreactivity
5,QVQLVESGGGLVQAGGSLRLSCAASGFTLYYYTMGWYRQAPGKERELVAAITSGGDTYYADSVKGRFTISRDNAKNTVYLQMNSLKPEDTAVYYCAAVDDDYSIVWYDYWGQGTQVTVSS,low polyreactivity
6,QVQLVESGGGLVQAGASLRLSCAASGRIFRNYAMGWYRQAPGKERELVAAISSSGGSTYYADSVKGRFTISRDIAKNTVYFQMNSLKPEDTAVYYCAAVARVRGRGDYWGQGSQVTVSS,high polyreactivity
7,QVQLVESGGGLVQAGGSLRLTCAASGFTFRSYAMGWYRQAPGKEREWVAVISSSGGSTYYADSVKARFTISRDNAKNTVYLQMNSLKPEDTAVYYCNRRPATRAYLYDYWGQGTQVTGSS,high polyreactivity
8,QVQLVESGGGLVQAGGSLRLSCAASGSTFTFNAMGWSRQAPGKDRELVAAIRWSTGGTYYADSVKGRFTISRDNAKNTVYLQMNSLKPEDTAVYNCAAQFVPYFYFSKYDYWGQGTQVTVSS,low polyreactivity
9,QVQLVESGGGLVQAGGSLRLSCAASGIIFDKNAMGWYRQAPGKERELVAVITRGGSTYYADSVKGRFTISRDNAKNTVYLQMNSLKPEDTAVYYCAARYTPGFGYWGQGTQVTVSS,high polyreactivity
10,QVQLVESGGGLFQAGGSLRLSCAASGFIFRSNAMGGYRHAPGKERELVAAISGGGITYYADSVKGRFTISRDNAKNTVYLQMNSLKPEDTAVYYCAVRWYFKTHWGGYHPYEYCGQGTQVTVSS,high polyreactivity
11,QVQLVESGGGLVQAGGSLRLSSAASGFIFEPYAMGWYRQAPGKERELVAAIRWSDGSTFYADSVKGRFTISRDTAKNTVYLQMNSLKPEDSAVYYCNAVYEHRRVGWVTIDYGYWGQGTQVTVSS,low polyreactivity
12,QVQLVESGGGLVQAGGSLRFSCAASGRTFQYYTMGWSRQAPGKEREFVAAIRDSGGSTYYADSVKGRFTISRDNAKNTVYLQMNSLKPEDTAVYYCAAYRPRKYDYWGQGTQVTVSS,high polyreactivity
13,QVQLVESGGGLVQAGGSLRLSCAASGYIFLPYAMGWYRQAPGKERELVAAITSVGRTYYADSVKGRFTISRDNAKNTVYLQMNSLKPEDTAVYYCAAPRGHGKYYSWGQGTQVTVSS,high polyreactivity
14,QVQLVESGGGLVQAGGSLRLSCAASGSIFAGYAMGWYRPAPGKERELVAAINWTGDSTYYADSVKGRFTISRDNAKNTVYLQMNSLKPEDTAVYYCAAIRRQKGLWDYYYWGQGTQVTVSS,low polyreactivity
15,QVQLVESGGGLVQAGGSLRLSCAASGRIFTRNAMGWYRQAPGKERQLVAAISHSGGSTYADSVKGRFTISRDNAKNTVYLQMNSLKPEDTAVYYCAADSPYGYYEGDYCGQGTQVTVSS,low polyreactivity
16,QVQLVESGGGLVQAGGSLRLSCAASGITSWYYAMGWYRQAPGKERELVAAITSDGRTNYADSVMGRFTISRDNAKNTVYLQMNSLKPEDTAVYYCAVARYPYRYDYWGQGTQVTVSS,high polyreactivity
17,QVQLVESGGGLVQAGGSLRLSCAASGFTIGSNAMGWYRPAPGKEWELVAAISYTCSTYYAESVKGRFTISRDNAKNTVYLQKNSLKPEDTAVYYGNAESDTPSYDDWGQGTQVTVSS,low polyreactivity
18,QVQLVESGGGLVQAGGSLRLSCAASGSTFPYYALGLYRQAPGKERELVAAISRGGGITYYADSVKGRFSISRDNAKNTVYLQMNCLKPEDTAVYYCAAYTAAEQGYNYWGQGTQVTVSS,high polyreactivity
19,QVQLVESGGGLVQAGGSLRLSCAASGRIFTTYAMGWYRPAPGKERELVAANTSGGRTNYADSVKGRFTISRDNAKNTVYLQMNSLKPEDTAVYYCAADGGVRRLTGLLYSFDYWGQGTQVTVSS,low polyreactivity
20,QVQLVESGGGLVQAGGSLRLSCAASGRTFRHNAMGWYRQAPGKERELVAAISSSGTNTHYADSVKGRFTISRDNAKNTVYLQMNSLKPEDTAVYYCAADRWGARRKQYHENGYWGQGTQVTVSS,high polyreactivity
21,QVHLVESGGGLVQAGGSLRLSCASTGIIFLRNAMGWYRQAHGKERELVAAISYRGGSTYYADSVKGRFTISRDNANNTVYLQMNSLKPEDTAVYYCNDLYTSLYDYWGQGTQVTVSS,high polyreactivity
